We go through one molecule from US20030175830, “Reagents and methods for the screening of compounds useful in the treatment of neurological diseases” (Case Western Reserve University, published 2003).

The target of the series is T1, Pet-1 (Rattus norvegicus, UniProt O70132 SEQ:1-340).
T1 sequence: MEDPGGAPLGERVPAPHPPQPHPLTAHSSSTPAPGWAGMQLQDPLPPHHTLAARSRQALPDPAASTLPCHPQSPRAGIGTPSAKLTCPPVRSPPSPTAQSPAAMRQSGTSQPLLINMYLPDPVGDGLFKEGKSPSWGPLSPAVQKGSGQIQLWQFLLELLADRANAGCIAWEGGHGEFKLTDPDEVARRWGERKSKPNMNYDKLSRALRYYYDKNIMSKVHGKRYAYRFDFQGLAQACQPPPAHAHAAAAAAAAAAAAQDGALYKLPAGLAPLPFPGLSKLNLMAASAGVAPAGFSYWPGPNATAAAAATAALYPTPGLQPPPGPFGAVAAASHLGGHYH
Description: competition; molar excess unlabeled PEA3 eliminated complexes. Conditions: tags: bacterially expressed; label: 32P.

B1: PEA3 site oligonucleotide (dsDNA)
DNA 1: GATCCAGGAAGTGAC
DNA 2: GTCACTTCCTGGATC
Regarding B1, the binding result is “binds”.
